US7514069B2, “Tumor-targeted optical contrast agents” (Mallinckrodt Inc., priority 2000, dated 2009)

Tests used:
[1] = test system: pancreatic acinar carcinoma expressing the SST-2 receptor (CA20948); assay: In vivo fluorescence imaging of rat pancreatic acinar carcinoma (CA20948); parameters: species or system Lewis rat
Description: (§1) A non-invasive in vivo fluorescence imaging apparatus was employed to assess the efficacy of contrast agents developed for tumor detection in animal models. A LaserMax Inc. laser diode of nominal wavelength 780 nm and nominal power of 40 mW was used. The detector was a Princeton Instruments model RTE/CCD-1317-K/2 CCD camera with a Rodenstock 10 mm F2 lens (stock #542.032.002.20) attached. An 830 nm interference […] (CVI Laser Corp., part # F10-830-4-2) was mounted in front of the CCD input lens such that only emitted fluorescent light from the contrast agent was imaged. Typically, an image of the animal was taken pre-injection of contrast agent. This image was subsequently subtracted (pixel by pixel) from the post injection images. However, the background subtraction was […] done once the animal had been removed from the sample area and returned at a later time for images taken several hours post injection.
The imaging apparatus and the procedure used are described in Example 12. Rat pancreatic acinar carcinoma expressing the SST-2 receptor (CA20948) was induced by solid implant technique in the left flank area, and palpable masses were detected nine days post implant. The images obtained at 2 and 30 minutes post injection are shown in FIG. 7E-F. FIGS. 7E-F are images of a rat with an induced pancreatic acinar carcinoma (CA20948) expressing the SST-2 receptor imaged at two minutes (FIG. 7E) and 30 minutes (FIG. 7F) post injection.
The imaging apparatus and the procedure used are described in Example 12 except that each animal received 500 μl of a 1.0 mg/mL solution of Cytate 1 solution of 25% dimethylsulfoxide in water.
Rat pancreatic acinar carcinoma expressing the SST-2 receptor (CA20948) were induced by solid implant technique in the left flank area, and palpable masses were detected 24 days post implant. Images were obtained at various times post injection.
Cytate 1 was evaluated in the CA20948 Lewis rat model. […] At 27 hours post injection, the animal was again imaged (FIG. 9B).

[2] = Monitoring of the blood clearance profile of peptide-dye conjugates; format: in vivo, Sprague-Dawley or Fischer 344 rats; details: bolus injection in lateral tail vein; monitored at 830 nm after excitation at 780 nm
Description: A laser of appropriate wavelength for excitation of the dye chromophore was directed into one end of a fiber optic bundle and the other end was positioned a few millimeters from the ear of a rat. A second fiber optic bundle was also positioned near the same ear to detect the emitted fluorescent light and the other end was directed into the optics and electronics for data collection. An interference filter (IF) in the collection optics train was used to select emitted fluorescent light of the appropriate wavelength for the dye chromophore.
Sprague-Dawley or Fischer 344 rats were used in these studies. The animals were anesthetized with urethane administered via intraperitoneal injection at a dose of 1.35 g/kg body weight. After the animals had achieved the desired plane of anesthesia, a 21 gauge butterfly with 12″ tubing was placed in the lateral tail vein of each animal and flushed with heparinized saline. The animals were placed onto a heating pad and kept warm throughout the entire study. […]
Incident laser light delivered from the fiber optic was centered on the affixed ear. Data acquisition was then initiated, and a background reading of fluorescence was obtained prior to administration of the test agent. […] The data were analyzed using a standard sigma plot software program for a one compartment model.

[3] = test system: pancreatic acinar carcinoma (CA20948); assay: Imaging of individual organs removed from CA20948 tumor-bearing rat; format: in vivo; details: organs removed about 24 hours post administration
Experimental: Individual organs were removed at about 24 hours post Cytate 1 administration and imaged.

[4] = test system: Prostrate tumors (Dunning R3327-H); assay: In vivo fluorescence imaging of prostatic carcinoma (R3327-H); parameters: species or system young male Copenhagen rats
Description: as §1
The imaging apparatus and the procedure used are described as in Example 12. Prostrate tumors (Dunning R3327-H) were induced in young male Copenhagen rats in the left flank area from a solid implant. These tumors grow very slowly and palpable masses were present 4-5 months post implant. FIGS. 7C-D are images of a rat with an induced prostatic carcinoma tumor (R3327-H) imaged at two minutes (FIG. 7C) and 30 minutes (FIG. 7D) post injection.

DSL 6A tumors = assay: In vivo fluorescence imaging of pancreatic ductal adenocarcinoma (DSL 6A); parameters: species or system male Lewis rats
Description: as §1
DSL 6A tumors were induced in male Lewis rats in the left flank area by the introduction of material from a solid (donor) implant and the tumors were palpable in approximately 14 days. The animals were anesthetized with xylazine; ketamine; acepromazine 1.5:1.5:0.5 at 0.8 mL/kg via intramuscular injection. The area of the tumor (left flank) was shaved to expose tumor and surrounding surface area. […]

[5] = 500 μl of 1.0 mg/mL solution in 25% dimethylsulfoxide in water, CA20948 tumor

| SMILES | time at which uptake into the tumor was maximal [1, 5] | time at which uptake into the tumor was seen [1, 5] | uptake at 45 minutes in rats with the CA20948 tumor cell line ([1]; 45 minutes post injection) | localization of dye in the tumor ([1]; 45 minutes post injection, CA20948 Lewis rat model) | tumor visualization ([1]; 27 hours post injection, CA20948 Lewis rat model) | persistence of dye fluorescence in the tumor ([1]; CA20948 tumor, post-injection) | fluorescence signal in blood (ear) after bolus injection [2] | organ uptake: adrenals [3] | organ uptake: heart [3] | organ uptake: liver [3] | organ uptake: muscle [3] | organ uptake: pancreas [3] | organ uptake: spleen [3] | organ uptake: tumor tissue [3] | dye intensity in the tumor ([1]; 30 minutes post-ICG injection, CA20948 tumor) | perfusion of the agent into the tumor ([1]; CA20948 (pancreatic) tumor line, CCD camera) | dye intensity in the tumor ([4]; 30 minutes post-ICG injection, R3327-H tumor) | perfusion of the agent into the tumor ([4]; Dunning R3327H (prostate) tumor line, CCD camera) | dye intensity in the tumor (DSL 6A tumors; 30 minutes post-ICG injection, bolus injection of 0.5 ml aqueous solution of ICG, DSL 6A tumor) | perfusion of the agent into the tumor (DSL 6A tumors; DSL 6/A (pancreatic) tumor line, CCD camera) |
| --- | --- | --- | --- | --- | --- | --- | --- | --- | --- | --- | --- | --- | --- | --- | --- | --- | --- | --- | --- | --- |
| C[C@@H](O)[C@H](NC(=O)[C@@H]1CSSC[C@H](NC(=O)[C@@H](Cc2ccccc2)NC(=O)CCN2C(=CC=CC=CC=CC3=[N+](CCC(=O)O)c4ccc5ccccc5c4C3(C)C)C(C)(C)c3c2ccc2ccccc32)C(=O)N[C@@H](Cc2ccc(O)cc2)C(=O)N[C@H](Cc2c[nH]c3ccccc23)C(=O)N[C@@H](CCCCN)C(=O)N[C@@H]([C@@H](C)O)C(=O)N1)C(=O)O [Cytate 1, monoOctreotate-Bisethylcarboxymethylindocyanine dye] | about five | two | still quite intense | localization of this dye was observed in the tumor | Tumor visualization was easily observed | remained intense in the tumor for several hours | rapidly increased to a peak value. The signal then decayed as a function of time | high uptake | significantly lower uptake | significantly lower uptake | significantly lower uptake | high uptake | significantly lower uptake | high uptake | – | – | – | – | – | – |
| CC1(C)C(/C=C/C=C/C=C/C=C2\N(CCCCS(=O)(=O)O)c3ccc4ccccc4c3C2(C)C)=[N+](CCCCS(=O)(=O)[O-])c2ccc3ccccc3c21 [ICG, indocyanine green] | – | – | mostly cleared | – | – | – | – | – | – | – | – | – | – | – | considerably diminished and almost absent | only a slight but transient perfusion that was absent after only 30 minutes post injection | considerably diminished | slow perfusion of the agent over time into the tumor | considerably diminished | slow perfusion of the agent over time into the tumor |
| C[C@@H](O)[C@H](NC(=O)[C@@H]1CSSC[C@H](NC(=O)[C@@H](Cc2ccccc2)NC(=O)CCN2C(=CC=CC=CC=CC3=[N+](CCC(=O)N[C@H](Cc4ccccc4)C(=O)N[C@H]4CSSC[C@@H](C(=O)N[C@H](C(=O)O)[C@@H](C)O)NC(=O)[C@H]([C@@H](C)O)NC(=O)[C@H](CCCCN)NC(=O)[C@@H](Cc5c[nH]c6ccccc56)NC(=O)[C@H](Cc5ccc(O)cc5)NC4=O)c4ccc5ccccc5c4C3(C)C)C(C)(C)c3c2ccc2ccccc32)C(=O)N[C@@H](Cc2ccc(O)cc2)C(=O)N[C@H](Cc2c[nH]c3ccccc23)C(=O)N[C@@H](CCCCN)C(=O)N[C@@H]([C@@H](C)O)C(=O)N1)C(=O)O [Cytate 2, bisOctreotate-Bisethylcarboxymethylindocyanine dye] | – | – | – | – | – | – | rapidly increased to a peak value. The signal then decayed as a function of time | – | – | – | – | – | – | – | – | – | – | – | – | – |
